This is an account of results in patent US20160160255A1, “Methods and Materials for Producing 6-Carbon Monomers” (INVISTA North America S.á.r.l., priority 2014, published 2016).

The nature of series [1]: ω-transaminase activity, 6-aminohexanoate to adipate semialdehyde (reverse direction). The format is biochemical. Particulars: cell free extract, 10 mM 6-aminohexanoate, 10 mM pyruvate, pH 7.5, 25° C., 24 h, RP-HPLC. The method, then:
(§1) A nucleotide sequence encoding a His-tag was added to the nucleic acid sequences from Chromobacterium violaceum, Pseudomonas aeruginosa, Pseudomonas syringae, Rhodobacter sphaeroides, and Vibrio fluvialis encoding the ω-transaminases of SEQ ID NOs: 7, 8, 9, 10 and 12, respectively (see FIG. 6) such that N-terminal HIS tagged ω-transaminases could be produced. Each of the resulting modified genes was cloned into a pET21a expression vector under control of the T7 promoter and each expression vector was transformed into a BL21[DE3] E. coli host. The resulting recombinant E. coli strains were cultivated at 37° C. in a 250 mL shake flask culture containing 50 mL LB media and antibiotic selection pressure, with shaking at 230 rpm. Each culture was induced overnight at 16° C. using 1 mM IPTG.
(§2) The pellet from each induced shake flask culture was harvested via centrifugation. Each pellet was resuspended and lysed via sonication. The cell debris was separated from the supernatant via centrifugation and the cell free extract was used immediately in enzyme activity assays.
Enzyme activity assays in the reverse direction (i.e., 6-aminohexanoate to adipate semialdehyde) were performed in a buffer composed of a final concentration of 50 mM HEPES buffer (pH=7.5), 10 mM 6-aminohexanoate, 10 mM pyruvate and 100 μM pyridoxyl 5′ phosphate. Each enzyme activity assay reaction was initiated by adding cell free extract of the ω-transaminase gene product or the empty vector control to the assay buffer containing the 6-aminohexanoate and incubated at 25° C. for 24 h, with shaking at 250 rpm. The formation of L-alanine from pyruvate was quantified via RP-HPLC.

Series [2] can be described thus: ω-transaminase activity, adipate semialdehyde to 6-aminohexanoate (forward direction). Conditions: cell free extract, 10 mM adipate semialdehyde, 10 mM L-alanine, pH 7.5, 25° C., 4 h, RP-HPLC. In kind it is biochemical. The method, then:
as §1, §2
Enzyme activity in the forward direction (i.e., adipate semialdehyde to 6-aminohexanoate) was confirmed for the transaminases of SEQ ID NO 7, SEQ ID NO 8, SEQ ID NO 9, SEQ ID NO 10 and SEQ ID NO 12. Enzyme activity assays were performed in a buffer composed of a final concentration of 50 mM HEPES buffer (pH=7.5), 10 mM adipate semialdehyde, 10 mM L-alanine and 100 μM pyridoxyl 5′ phosphate. Each enzyme activity assay reaction was initiated by adding a cell free extract of the ω-transaminase gene product or the empty vector control to the assay buffer containing the adipate semialdehyde and incubated at 25° C. for 4 h, with shaking at 250 rpm. The formation of pyruvate was quantified via RP-HPLC.

Regarding “SEQ ID NO 10: Rhodobacter sphaeroides ω-transaminase, Genbank Accession No. ABA81135.1, N-terminal His-tagged”, the “acceptance of 6-aminohexanoate as substrate (conversion of pyruvate to L-alanine vs empty vector control)” value in series [1] is reported as “accepted 6-aminohexanote as substrate”. In series [2], the “acceptance of adipate semialdehyde as substrate (conversion of L-alanine to pyruvate vs empty vector control)” value is listed as “accepted adipate semialdehyde as substrate”.

B1: SEQ ID NO 9: Pseudomonas syringae ω-transaminase, Genbank Accession No. AAY39893.1, N-terminal His-tagged (protein, listed as Pseudomonas syringae)
chain: MSANNPQTLEWQALSSEHHLAPFSDYKQLKEKGPRIITRAEGVYLWDSEGNKILDGMSGLWCVAIGYGREELADAASKQMRELPYYNLFFQTAHPPVLELAKAISDIAPEGMNHVFFTGSGSEGNDTMLRMVRHYWALKGQPNKKTIISRVNGYHGSTVAGASLGGMTYMHEQGDLPIPGVVHIPQPYWFGEGGDMTPDEFGIWAAEQLEKKILELGVENVGAFIAEPIQGAGGVIVPPDSYWPKIKEILSRYDILFAADEVICGFGRTSEWFGSDFYGLRPDMMTIAKGLTSGYVPMGGLIVRDEIVAVLNEGGDFNHGFTYSGHPVAAAVALENIRILREEKIVERVRSETAPYLQKRLRELSDHPLVGEVRGVGLLGAIELVKDKTTRERYTDKGAGMICRTFCFDNGLIMRAVGDTMIIAPPLVISFAQIDELVEKARTCLDLTLAVLQG
modifications: N-terminal His tag
As to B1, the “acceptance of 6-aminohexanoate as substrate (conversion of pyruvate to L-alanine vs empty vector control)” value in series [1] was “accepted 6-aminohexanote as substrate”. The “acceptance of adipate semialdehyde as substrate (conversion of L-alanine to pyruvate vs empty vector control)” value in series [2] is given as “accepted adipate semialdehyde as substrate”.

B2: SEQ ID NO 7: Chromobacterium violaceum ω-transaminase, Genbank Accession No. AAQ59697.1, N-terminal His-tagged (protein, listed as Chromobacterium violaceum)
chain: MQKQRTTSQWRELDAAHHLHPFTDTASLNQAGARVMTRGEGVYLWDSEGNKIIDGMAGLWCVNVGYGRKDFAEAARRQMEELPFYNTFFKTTHPAVVELSSLLAEVTPAGFDRVFYTNSGSESVDTMIRMVRRYWDVQGKPEKKTLIGRWNGYHGSTIGGASLGGMKYMHEQGDLPIPGMAHIEQPWWYKHGKDMTPDEFGVVAARWLEEKILEIGADKVAAFVGEPIQGAGGVIVPPATYWPEIERICRKYDVLLVADEVICGFGRTGEWFGHQHFGFQPDLFTAAKGLSSGYLPIGAVFVGKRVAEGLIAGGDFNHGFTYSGHPVCAAVAHANVAALRDEGIVQRVKDDIGPYMQKRWRETFSRFEHVDDVRGVGMVQAFTLVKNKAKRELFPDFGEIGTLCRDIFFRNNLIMRACGDHIVSAPPLVMTRAEVDEMLAVAERCLEEFEQTLKARGLA
modifications: N-terminal His tag
For the molecule B2, the “acceptance of 6-aminohexanoate as substrate (conversion of pyruvate to L-alanine vs empty vector control)” value in series [1] was “accepted 6-aminohexanote as substrate”. Besides, the “acceptance of adipate semialdehyde as substrate (conversion of L-alanine to pyruvate vs empty vector control)” value in series [2] is “accepted adipate semialdehyde as substrate”.

B3: SEQ ID NO 12: Vibrio fluvialis ω-transaminase, Genbank Accession No. AEA39183.1, N-terminal His-tagged (protein, listed as Vibrio fluvialis)
chain: MNKPQSWEARAETYSLYGFTDMPSLHQRGTVVVTHGEGPYIVDVNGRRYLDANSGLWNMVAGFDHKGLIDAAKAQYERFPGYHAFFGRMSDQTVMLSEKLVEVSPFDSGRVFYTNSGSEANDTMVKMLWFLHAAEGKPQKRKILTRWNAYHGVTAVSASMTGKPYNSVFGLPLPGFVHLTCPHYWRYGEEGETEEQFVARLARELEETIQREGADTIAGFFAEPVMGAGGVIPPAKGYFQAILPILRKYDIPVISDEVICGFGRTGNTWGCVTYDFTPDAIISSKNLTAGFFPMGAVILGPELSKRLETAIEAIEEFPHGFTASGHPVGCAIALKAIDVVMNEGLAENVRRLAPRFEERLKHIAERPNIGEYRGIGFMWALEAVKDKASKTPFDGNLSVSERIANTCTDLGLICRPLGQSVVLCPPFILTEAQMDEMFDKLEKALDKVFAEVA
modifications: N-terminal His tag
Take B3: the “acceptance of 6-aminohexanoate as substrate (conversion of pyruvate to L-alanine vs empty vector control)” value in series [1] is given as “accepted 6-aminohexanote as substrate”. The “acceptance of adipate semialdehyde as substrate (conversion of L-alanine to pyruvate vs empty vector control)” value in series [2] is “accepted adipate semialdehyde as substrate”.

B4: SEQ ID NO 8: Pseudomonas aeruginosa ω-transaminase, Genbank Accession No. AAG08191.1, N-terminal His-tagged (protein, listed as Pseudomonas aeruginosa)
chain: MNARLHATSPLGDADLVRADQAHYMHGYHVFDDHRVNGSLNIAAGDGAYIYDTAGNRYLDAVGGMWCTNIGLGREEMARTVAEQTRLLAYSNPFCDMANPRAIELCRKLAELAPGDLDHVFLTTGGSTAVDTAIRLMHYYQNCRGKRAKKHVITRINAYHGSTFLGMSLGGKSADRPAEFDFLDERIHHLACPYYYRAPEGLGEAEFLDGLVDEFERKILELGADRVGAFISEPVFGSGGVIVPPAGYHRRMWELCQRYDVLYISDEVVTSFGRLGHFFASQAVFGVQPDIILTAKGLTSGYQPLGACIFSRRIWEVIAEPDKGRCFSHGFTYSGHPVACAAALKNIEIIEREGLLAHADEVGRYFEERLQSLRDLPIVGDVRGMRFMACVEFVADKASKALFPESLNIGEWVHLRAQKRGLLVRPIVHLNVMSPPLILTREQVDTVVRVLRESIEETVEDLVRAGHR
modifications: N-terminal His tag
For the molecule B4, the “acceptance of adipate semialdehyde as substrate (conversion of L-alanine to pyruvate vs empty vector control)” value in series [2] was “accepted adipate semialdehyde as substrate”.
